Results published in IntAct's records for PubMed 17314099.

B1: Serine-threonine kinase receptor-associated protein (Homo sapiens), Q9Y3F4 (parent)
chain: MAMRQTPLTCSGHTRPVVDLAFSGITPYGYFLISACKDGKPMLRQGDTGDWIGTFLGHKGAVWGATLNKDATKAATAAADFTAKVWDAVSGDELMTLAHKHIVKTVDFTQDSNYLLTGGQDKLLRIYDLNKPEAEPKEISGHTSGIKKALWCSEDKQILSADDKTVRLWDHATMTEVKSLNFNMSVSSMEYIPEGEILVITYGRSIAFHSAVSLDPIKSFEAPATINSASLHPEKEFLVAGGEDFKLYKYDYNSGEELESYKGHFGPIHCVRFSPDGELYASGSEDGTLRLWQTVVGKTYGLWKCVLPEEDSGELAKPKIGFPETTEEELEEIASENSDCIFPSAPDVKA

Assays:
Conditions in all cases: with ndka_human NME1, P15531
Sequence of ndka_human NME1, P15531 (P15531 whole entry): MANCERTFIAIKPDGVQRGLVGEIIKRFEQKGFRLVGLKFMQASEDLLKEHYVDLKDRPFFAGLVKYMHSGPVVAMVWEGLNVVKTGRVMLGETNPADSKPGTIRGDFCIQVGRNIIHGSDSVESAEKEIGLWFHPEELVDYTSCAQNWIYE

ndka_human NME1, P15531 [1] = variants of: B1
ndka_human NME1, P15531 [2] = variants of: B1; remark: listed apart in the source
ndka_human NME1, P15531 [3] = variants of: B1; remark: listed apart in the source

Row | effect of a mutation on the interaction (ndka_human NME1, P15531 [1]) | effect of a mutation on the interaction (ndka_human NME1, P15531 [2]) | effect of a mutation on the interaction (ndka_human NME1, P15531 [3]) | Variant
1 | disrupting interaction | decreasing interaction | – | MAMRQTPLTCSGHTRPVVDLAFSGITPYGYFLISACKDGKPMLRQGDTGDWIGTFLGHKGAVWGATLNKDATKAATAAADFTAKVWDAVSGDELMTLAHKHIVKTVDFTQDSNYLLTGGQDKLLRIYDLNKPEAEPKEISGHTSGIKKALWSSEDKQILSADDKTVRLWDHATMTEVKSLNFNMSVSSMEYIPEGEILVITYGRSIAFHSAVSLDPIKSFEAPATINSASLHPEKEFLVAGGEDFKLYKYDYNSGEELESYKGHFGPIHSVRFSPDGELYASGSEDGTLRLWQTVVGKTYGLWKCVLPEEDSGELAKPKIGFPETTEEELEEIASENSDCIFPSAPDVKA [C152S;C270S]
2 | decreasing interaction | – | disrupting interaction | MAMRQTPLTCSGHTRPVVDLAFSGITPYGYFLISACKDGKPMLRQGDTGDWIGTFLGHKGAVWGATLNKDATKAATAAADFTAKVWDAVSGDELMTLAHKHIVKTVDFTQDSNYLLTGGQDKLLRIYDLNKPEAEPKEISGHTSGIKKALWSSEDKQILSADDKTVRLWDHATMTEVKSLNFNMSVSSMEYIPEGEILVITYGRSIAFHSAVSLDPIKSFEAPATINSASLHPEKEFLVAGGEDFKLYKYDYNSGEELESYKGHFGPIHCVRFSPDGELYASGSEDGTLRLWQTVVGKTYGLWKCVLPEEDSGELAKPKIGFPETTEEELEEIASENSDCIFPSAPDVKA [C152S]
3 | decreasing interaction | – | disrupting interaction | MAMRQTPLTCSGHTRPVVDLAFSGITPYGYFLISACKDGKPMLRQGDTGDWIGTFLGHKGAVWGATLNKDATKAATAAADFTAKVWDAVSGDELMTLAHKHIVKTVDFTQDSNYLLTGGQDKLLRIYDLNKPEAEPKEISGHTSGIKKALWCSEDKQILSADDKTVRLWDHATMTEVKSLNFNMSVSSMEYIPEGEILVITYGRSIAFHSAVSLDPIKSFEAPATINSASLHPEKEFLVAGGEDFKLYKYDYNSGEELESYKGHFGPIHSVRFSPDGELYASGSEDGTLRLWQTVVGKTYGLWKCVLPEEDSGELAKPKIGFPETTEEELEEIASENSDCIFPSAPDVKA [C270S]
